Source: US20080008707A1, “Denatured collagen peptides and uses thereof” (Cell-Matrix, Inc., priority 2006, published 2008)
Values belong to the binder of their own block, whether it stands above or below them. Square brackets hold non-standard residues; d marks the D form. Ends that are not written are not given here. Hyp = O=C(O)[C@@H]1C[C@@H](O)CN1

Tests used:
[1] = molecular target: D93, recombinant humanized IgG1 kappa antibody targeting denatured-collagen; experiment: competition ELISA on coated human dn-collagen IV
Chain of D93, recombinant humanized IgG1 kappa antibody targeting denatured-collagen (heavy, as listed by the source, chain 1 of 2): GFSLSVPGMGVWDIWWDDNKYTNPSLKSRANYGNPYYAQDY
Chain of D93, recombinant humanized IgG1 kappa antibody targeting denatured-collagen (light, as listed by the source, chain 2 of 2): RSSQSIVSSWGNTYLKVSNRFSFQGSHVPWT

[2] = molecular target: HUI77, murine IgM anti-denatured-collagen monoclonal antibody; experiment: competition ELISA on coated dn-collagen IV

% inhibition of D93 binding to dn-collagen IV, peptide 1 µM [1]: 6%
% inhibition of D93 binding to dn-collagen IV, peptide 10 µM [1]: 5%
% inhibition of D93 binding to dn-collagen IV, peptide 100 µM [1]: 3%
% inhibition of D93 binding to dn-collagen IV, peptide 1000 µM [1]: 17.5%
% inhibition of HUI77 binding to dn-collagen IV, peptide 10 µM [2]: 6.5%
% inhibition of HUI77 binding to dn-collagen IV, peptide 100 µM [2]: 9%
% inhibition of HUI77 binding to dn-collagen IV, peptide 1000 µM [2]: 6%
B3: synthetic peptide No. 18, … (SEQ ID NO: 22) (peptide)
peptide: LPGPPGPPG
modifications: also: hydroxyproline at marked P positions, if any, marking lost

% inhibition of D93 binding to dn-collagen IV, peptide 1 µM [1]: 9.5%
% inhibition of D93 binding to dn-collagen IV, peptide 10 µM [1]: 21%
% inhibition of D93 binding to dn-collagen IV, peptide 100 µM [1]: 77%
% inhibition of D93 binding to dn-collagen IV, peptide 1000 µM [1]: 92.5%
% inhibition of HUI77 binding to dn-collagen IV, peptide 10 µM [2]: 7.5%
% inhibition of HUI77 binding to dn-collagen IV, peptide 100 µM [2]: 12%
% inhibition of HUI77 binding to dn-collagen IV, peptide 1000 µM [2]: 44%
B7: synthetic peptide No. 17, GPPGPPGP (SEQ ID NO: 31) (peptide)
peptide: GPXGPXGP
modifications: hydroxyproline at the P positions marked in Tables 13 and 14; marking lost in this text

Further lines, the binder ahead of its results:

B1: synthetic peptide No. 19, LPGFPG (SEQ ID NO: 23) (peptide)
peptide: L[Hyp]GF[Hyp]G
% inhibition of D93 binding to dn-collagen IV, peptide 1 µM [1]: 10.5%
% inhibition of D93 binding to dn-collagen IV, peptide 10 µM [1]: 6%
% inhibition of D93 binding to dn-collagen IV, peptide 100 µM [1]: 8%
% inhibition of D93 binding to dn-collagen IV, peptide 1000 µM [1]: 32%
% inhibition of HUI77 binding to dn-collagen IV, peptide 10 µM [2]: 7%
% inhibition of HUI77 binding to dn-collagen IV, peptide 100 µM [2]: 14.5%
% inhibition of HUI77 binding to dn-collagen IV, peptide 1000 µM [2]: 75%

B2: synthetic peptide No. 1, … (SEQ ID NO: 29) (peptide)
peptide: PGP[Hyp]GP[Hyp]GP
% inhibition of D93 binding to dn-collagen IV, peptide 1 µM [1]: 11.5%
% inhibition of D93 binding to dn-collagen IV, peptide 10 µM [1]: 40.5%
% inhibition of D93 binding to dn-collagen IV, peptide 100 µM [1]: 87.5%
% inhibition of D93 binding to dn-collagen IV, peptide 1000 µM [1]: 93.5%
% inhibition of HUI77 binding to dn-collagen IV, peptide 10 µM [2]: 10.5%
% inhibition of HUI77 binding to dn-collagen IV, peptide 100 µM [2]: 12.5%
% inhibition of HUI77 binding to dn-collagen IV, peptide 1000 µM [2]: 63%

B4: synthetic peptide No. 9, LPGFPGC (SEQ ID NO: 37) (peptide)
peptide: LPGFPGC
modifications: also: hydroxyproline marking, if any, lost
% inhibition of D93 binding to dn-collagen IV, peptide 1 µM [1]: 8%
% inhibition of D93 binding to dn-collagen IV, peptide 10 µM [1]: 3.5%
% inhibition of D93 binding to dn-collagen IV, peptide 100 µM [1]: 1%
% inhibition of D93 binding to dn-collagen IV, peptide 1000 µM [1]: 6.5%
% inhibition of HUI77 binding to dn-collagen IV, peptide 10 µM [2]: 7%
% inhibition of HUI77 binding to dn-collagen IV, peptide 100 µM [2]: 7.5%
% inhibition of HUI77 binding to dn-collagen IV, peptide 1000 µM [2]: 8.5%

B5: synthetic peptide No. 4, … (SEQ ID NO: 28) (peptide)
peptide: PGP[Hyp]GP[Hyp]GPY
% inhibition of D93 binding to dn-collagen IV, peptide 1 µM [1]: 33.5%
% inhibition of D93 binding to dn-collagen IV, peptide 10 µM [1]: 83%
% inhibition of D93 binding to dn-collagen IV, peptide 100 µM [1]: 93.5%
% inhibition of D93 binding to dn-collagen IV, peptide 1000 µM [1]: 93.5%
% inhibition of HUI77 binding to dn-collagen IV, peptide 10 µM [2]: 7%
% inhibition of HUI77 binding to dn-collagen IV, peptide 100 µM [2]: 16%
% inhibition of HUI77 binding to dn-collagen IV, peptide 1000 µM [2]: 86.5%

B6: synthetic peptide No. 15, GPPGPPG (SEQ ID NO: 32) (peptide)
peptide: GPXGPXG
modifications: contains hydroxyproline ('where P is hydroxyproline'); positions marked in the tables but lost in this text
% inhibition of D93 binding to dn-collagen IV, peptide 1 µM [1]: 8%
% inhibition of D93 binding to dn-collagen IV, peptide 10 µM [1]: 17%
% inhibition of D93 binding to dn-collagen IV, peptide 100 µM [1]: 64%
% inhibition of D93 binding to dn-collagen IV, peptide 1000 µM [1]: 92.5%
% inhibition of HUI77 binding to dn-collagen IV, peptide 10 µM [2]: 6%
% inhibition of HUI77 binding to dn-collagen IV, peptide 100 µM [2]: 7.5%
% inhibition of HUI77 binding to dn-collagen IV, peptide 1000 µM [2]: 77%
